Positions count from the first letter of the chain named. Numbers in names are those of the source.
T1: PUF4 RNA-binding domain (Saccharomyces cerevisiae, UniProt P25339 537-888)
T1 sequence: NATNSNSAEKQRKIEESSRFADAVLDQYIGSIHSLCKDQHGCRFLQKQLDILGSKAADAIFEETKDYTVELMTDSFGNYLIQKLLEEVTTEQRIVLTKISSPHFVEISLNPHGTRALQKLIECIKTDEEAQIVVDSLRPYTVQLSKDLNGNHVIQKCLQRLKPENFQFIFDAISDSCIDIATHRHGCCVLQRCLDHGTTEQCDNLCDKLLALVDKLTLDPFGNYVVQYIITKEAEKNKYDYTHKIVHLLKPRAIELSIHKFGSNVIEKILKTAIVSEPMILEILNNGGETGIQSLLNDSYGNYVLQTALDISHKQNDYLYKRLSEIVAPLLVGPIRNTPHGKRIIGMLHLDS

B1: Id_ii_S2_P5E.4_K5.3_C5.2_[C-2G]_[T-1C]_H5.3_A5.1_F5.1_T5.2_[T11A] (ssRNA)
RNA: UUUGAUUAAUAUGAUAUCGUUCUUUCUGCACACUUAUUAAAUUCUUUCUCGAUAUCAUAUUAAUCUUU
B2: Id_ii_S2_P5E.4_K5.3_C5.2_[C-2T]_[T-1A]_H5.3_A5.1_F5.1_T5.2_[T11C]_[A12G] (ssRNA)
RNA: B1 RNA with G28U, C29A, A40C, A41G
B3: Id_ii_S2_P5E.4_K5.3_C5.2_[C-2A]_[T-1C]_H5.3_A5.1_F5.1_T5.2_[T11C]_[A12C] (ssRNA)
RNA: B1 RNA with G28A, A40C, A41C
B4: Id_ii_S2_P5E.4_K5.3_C5.2_[C-2G]_[T-1C]_H5.3_A5.1_F5.1_T5.2_[A12C] (ssRNA)
RNA: B1 RNA with A40U, A41C
B5: Id_ii_S2_P5E.4_K5.3_C5.2_[C-2A]_[T-1C]_H5.3_A5.1_F5.1_T5.2_[A12T] (ssRNA)
RNA: B1 RNA with G28A, A40U, A41U
B6: Id_ii_S2_P5E.4_K5.3_C5.2_[C-2A]_H5.3_A5.1_F5.1_T5.2_[T11C]_[A12G] (ssRNA)
RNA: B1 RNA with G28A, C29U, A40C, A41G
B7: Id_ii_S2_P5E.4_K5.3_C5.2_[C-2T]_H5.3_A5.1_F5.1_T5.2_[T11C]_[A12T] (ssRNA)
RNA: B1 RNA with G28U, C29U, A40C, A41U
B8: Id_ii_S2_P5E.4_K5.3_C5.2_[C-2T]_H5.3_A5.1_F5.1_T5.2_[T11C]_[A12G] (ssRNA)
RNA: B1 RNA with G28U, C29U, A40C, A41G
B9: Id_ii_S2_P5E.4_K5.3_C5.2_[C-2T]_[T-1A]_H5.3_A5.1_F5.1_T5.2_[T11C] (ssRNA)
RNA: B1 RNA with G28U, C29A, A40C
B10: Id_ii_S2_P5E.4_K5.3_C5.2_[C-2G]_H5.3_A5.1_F5.1_T5.2_[A12T] (ssRNA)
RNA: B1 RNA with C29U, A40U, A41U
B11: Id_ii_S2_P5E.4_K5.3_C5.2_[C-2T]_H5.3_A5.1_F5.1_T5.2 (ssRNA)
RNA: B1 RNA with G28U, C29U, A40U
B12: Id_ii_S2_P5E.4_K5.3_C5.2_[C-2G]_H5.3_A5.1_F5.1_T5.2_[T11C]_[A12C] (ssRNA)
RNA: B1 RNA with C29U, A40C, A41C
B13: Id_ii_S2_P5E.4_K5.3_C5.2_[C-2A]_[T-1A]_H5.3_A5.1_F5.1_T5.2 (ssRNA)
RNA: B1 RNA with G28A, C29A, A40U
B14: Id_ii_S2_P5E.4_K5.3_C5.2_[C-2A]_[T-1C]_H5.3_A5.1_F5.1_T5.2_[T11C] (ssRNA)
RNA: B1 RNA with G28A, A40C
B15: Id_ii_S2_P5E.4_K5.3_C5.2_[C-2G]_H5.3_A5.1_F5.1_T5.2_[T11A]_[A12T] (ssRNA)
RNA: B1 RNA with C29U, A41U
B16: Id_ii_S2_P5E.4_K5.3_C5.2_[C-2A]_[T-1A]_H5.3_A5.1_F5.1_T5.2_[T11C] (ssRNA)
RNA: B1 RNA with G28A, C29A, A40C
B17: Id_ii_S2_P5E.4_K5.3_C5.2_[C-2T]_[T-1C]_H5.3_A5.1_F5.1_T5.2_[T11C] (ssRNA)
RNA: B1 RNA with G28U, A40C
B18: Id_ii_S2_P5E.4_K5.3_C5.2_[C-2A]_H5.3_A5.1_F5.1_T5.2_[T11G]_[A12C] (ssRNA)
RNA: B1 RNA with G28A, C29U, A40G, A41C
B19: Id_ii_S2_P5E.4_K5.3_C5.2_[C-2T]_H5.3_A5.1_F5.1_T5.2_[A12T] (ssRNA)
RNA: B1 RNA with G28U, C29U, A40U, A41U
B20: Id_ii_S2_P5E.4_K5.3_C5.2_[C-2T]_[T-1C]_H5.3_A5.1_F5.1_T5.2 (ssRNA)
RNA: B1 RNA with G28U, A40U
B21: Id_ii_S2_P5E.4_K5.3_C5.2_[C-2T]_H5.3_A5.1_F5.1_T5.2_[T11G]_[A12C] (ssRNA)
RNA: B1 RNA with G28U, C29U, A40G, A41C
B22: Id_ii_S2_P5E.4_K5.3_C5.2_[C-2A]_[T-1C]_H5.3_A5.1_F5.1_T5.2_[T11C]_[A12G] (ssRNA)
RNA: B1 RNA with G28A, A40C, A41G
B23: Id_ii_S2_P5E.4_K5.3_C5.2_[C-2A]_[T-1C]_H5.3_A5.1_F5.1_T5.2 (ssRNA)
RNA: B1 RNA with G28A, A40U
B24: Id_ii_S2_P5E.4_K5.3_C5.2_[C-2T]_[T-1C]_H5.3_A5.1_F5.1_T5.2_[T11A]_[A12T] (ssRNA)
RNA: B1 RNA with G28U, A41U
B25: Id_ii_S2_P5E.4_K5.3_C5.2_[C-2T]_[T-1C]_H5.3_A5.1_F5.1_T5.2_[A12C] (ssRNA)
RNA: B1 RNA with G28U, A40U, A41C

Each binder was assayed against T1, PUF4 RNA-binding domain (assay: Mg; RNA-MaP; 20 mM Na-HEPES pH 7.4, 30 mM KOAc, 0.75 mM MgCl2, 0.1% Tween-20, 5% glycerol, 0.1 mg/mL BSA, 2 mM DTT; 25 C; 0.0125-409.6 nM protein). Conditions: tags: N-His6-TEV cleaved; C-SNAP kept, Cy3B-labelled; label: tethered on chip by stalled RNA polymerase.

Binder	Kd [µM]
UCUCUUUGUACUAUCAUCUCUU (ssRNA) [Ic_S1_P5E.1_K5.1_C5.1_H5.1_A5.1_[T5C]_F5.1_[T9C]_T5.1]	0.0178
UCUCUUUGUAUCAUCAUCUCUU (ssRNA) [Ib_S1_P5E.1_K5.1_C5.1_H5.1_A5.1_[T6C]_F5.1_[T9C]_T5.1]	0.0155
UCUCUUUGUAAUAUAAUCUCUU (ssRNA) [Ib_S1_P5E.1_K5.1_C5.1_H5.1_A5.1_[T5A]_F5.1_[T9A]_T5.1]	0.0033
UCUCUUUGUAAUAUCAUCUCUU (ssRNA) [Ic_S1_P5E.1_K5.1_C5.1_H5.1_A5.1_[T5A]_F5.1_[T9C]_T5.1]	0.0261
B1	0.549
B2	> 2.3
B3	> 2.3
B4	0.359
B5	> 2.3
B6	0.674
B7	1.53
B8	> 2.3
B9	> 2.3
B10	0.00125
B11	0.722
B12	0.00303
B13	0.875
B14	> 2.3
B15	0.00137
B16	> 2.3
B17	> 2.3
B18	0.902
B19	1.99
B20	0.751
B21	> 2.3
B22	> 2.3
B23	0.754
B24	> 2.3
B25	> 2.3

Reference: PMC9352680, “A comprehensive thermodynamic model for RNA binding by the Saccharomyces cerevisiae Pumilio protein PUF4”
